Measurements as given in paper PMC3787745, “Yeast Mnn9 is both a priming glycosyltransferase and an allosteric activator of mannan biosynthesis” (Open Biology, 2013).

How the values were obtained:
[1] = substrate: Cc1cc(=O)oc2cc(O[C@H]3O[C@H](CO)[C@@H](O)[C@H](O)[C@@H]3O)ccc12; assay: coupled fluorimetric assay with Aman6 mannosidase (4-MU release); type: biochemical, Saccharomyces cerevisiae; settings: acceptor varied 0-10 mM, 1.2 mM GDP-Man, 10 mM MnCl2, 20 mM HEPES pH 7.5, 500 nM enzyme
[2] = substrate: Nc1nc2c(ncn2[C@@H]2O[C@H](COP(=O)(O)OP(=O)(O)O[C@H]3O[C@H](CO)[C@@H](O)[C@H](O)[C@@H]3O)[C@@H](O)[C@H]2O)c(=O)[nH]1; assay: as above; type: biochemical, Saccharomyces cerevisiae; settings: donor varied 0-1.2 mM, 10 mM 4MU-Man, 10 mM MnCl2, 20 mM HEPES pH 7.5, 500 nM enzyme

B1: ScMnn9 (Saccharomyces cerevisiae S288C) (protein)
chain: EGHIAHYDLNKLHSTSEAAVNKEHILILTPMQTFHQQYWDNLLQLNYPRELIELGFITPRTATGDLALKKLENAIKKVQTDKKTQRFSKITILRQNSQSFDKLMEKERHALDVQKERRAAMALARNELLFSTIGPHTSWVLWLDADIIETPPSLIQDMTKHNKAILAANIYQRFYDEEKKQPSIRPYDFNNWQESDTGLEIASQMGDDEIIVEGYAEIATYRPLMAHFYDANGVPGEEMALDGVGGGCTLVKAEVHRDGAMFPNFPFYHLIETEGFAKMAKRLNYDVFGLPNYLVYHIEEENH
notes: glycosyltransferase domain 93-395, lacking first 92 residues; N-terminal MBP-His6-TEV tag cleaved; E. coli BL21(DE3) pLysS
In the case of B1, the Km [1] is reported as 6.5 (±0.3) mM, the kcat [1] is reported as 0.2 min⁻¹ and the Km [2] is reported as 0.5 (± 0.2) mM. It also gave a kcat [2] of 3.8 min⁻¹.
